Assay [1] addresses T1, cynomolgus monkey FcγRIIIaS extracellular domain with C-terminal His-tag (cynomolgus monkey, UniProt Q8SPW2 21-206 at identity 1.00)).
T1 construct: also called cyno FcgRIIIaS; cynoFcγRIIIaS
T1 chain: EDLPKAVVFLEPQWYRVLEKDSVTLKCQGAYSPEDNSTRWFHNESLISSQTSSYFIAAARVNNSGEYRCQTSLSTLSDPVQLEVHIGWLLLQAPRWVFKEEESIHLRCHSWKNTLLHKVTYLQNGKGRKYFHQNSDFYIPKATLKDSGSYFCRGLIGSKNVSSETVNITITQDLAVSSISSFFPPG
The experiment in a line: SPR, KD(SG1)/KD(variant). How it is done:
(§1) The kinetic analysis of interactions between these antibodies and FcγR was carried out using BIACORE® T200 or BIACORE® 4000 (GE Healthcare). HBS-EP+ (GE Healthcare) was used as the running buffer, and the measurement temperature was set to 25° C. […] After the measurement, the antibody captured on the chip was washed off by allowing reaction with 10 mM glycine-HCl, pH1.5 and 25 mM NaOH so that the chip was regenerated and used repeatedly. The sensorgrams obtained as measurement results were analyzed by the 1:1 Langmuir binding model using the BIACORE® Evaluation Software to calculate the binding rate constant ka (L/mol/s) and dissociation rate constant kd (1/s), and the dissociation constant KD (mol/L) was calculated from these values. […] Regarding such interactions, KD values were calculated using the following 1:1 binding model described in BIACORE® T100 Software Handbook BR1006-48 Edition AE.
Background: In SPR one partner is held on a chip, and binding of the other changes the refractive index at the surface.

Assay [2] addresses T1, cynomolgus monkey FcγRIIIaS …. Kind of assay: SPR, antibody captured, FcγR analyte. As for the experimental part:
as §1

Assay [3] has as its target T2, cynomolgus monkey FcγRIIa1 extracellular domain, His-tagged (cynomolgus monkey).
T2 construct: also called cyno FcγRIIa1; cynoFcgRIIa1; not shown: C-terminal His-tag
T2 chain: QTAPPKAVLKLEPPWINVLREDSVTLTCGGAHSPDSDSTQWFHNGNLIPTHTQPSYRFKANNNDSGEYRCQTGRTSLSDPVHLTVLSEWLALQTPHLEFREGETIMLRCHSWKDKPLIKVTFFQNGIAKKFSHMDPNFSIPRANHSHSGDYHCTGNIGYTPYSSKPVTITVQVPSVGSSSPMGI
The experiment in a line: SPR Biacore, antibody captured, FcgR analyte.

For assay [4], the target named is T3, cynomolgus monkey FcγRIIa3 extracellular domain, His-tagged (cynomolgus monkey).
T3 construct: also called cyno FcγRIIa3; cynoFcgRIIa3; not shown: C-terminal His-tag
T3 chain: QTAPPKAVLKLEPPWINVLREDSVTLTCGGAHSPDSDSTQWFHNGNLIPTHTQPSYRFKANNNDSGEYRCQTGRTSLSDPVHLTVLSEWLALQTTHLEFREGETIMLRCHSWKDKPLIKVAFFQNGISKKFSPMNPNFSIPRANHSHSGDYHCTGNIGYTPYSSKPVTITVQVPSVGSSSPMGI
The experiment in a line: SPR Biacore, KD(SG1)/KD(variant). As for the experimental part: as §1

The target in assay [5] is T4, human FcγRIIb extracellular domain, His-tagged (human, UniProt P31994 43-217).
T4 construct: also called FcgRIIb (human); not shown: C-terminal His-tag
T4 sequence: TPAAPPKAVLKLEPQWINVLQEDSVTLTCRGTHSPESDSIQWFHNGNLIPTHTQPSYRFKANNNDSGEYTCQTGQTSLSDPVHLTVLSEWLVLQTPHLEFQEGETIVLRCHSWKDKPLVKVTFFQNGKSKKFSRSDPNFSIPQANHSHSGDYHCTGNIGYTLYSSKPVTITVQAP
Kind of assay: SPR Biacore, KD(SG1)/KD(variant). How it is done:
as §1

Assay [6] addresses T4, human FcγRIIb extracellular domain, …. The experiment in a line: SPR Biacore, antibody captured, FcgR analyte.
For assay [7], the target named is T5, human FcγRIIaR extracellular domain, His-tagged (human, UniProt P12318 34-217).
T5 construct: also called human FcγRIIa (type R); FcgRIIaR; not shown: C-terminal His-tag
T5 chain: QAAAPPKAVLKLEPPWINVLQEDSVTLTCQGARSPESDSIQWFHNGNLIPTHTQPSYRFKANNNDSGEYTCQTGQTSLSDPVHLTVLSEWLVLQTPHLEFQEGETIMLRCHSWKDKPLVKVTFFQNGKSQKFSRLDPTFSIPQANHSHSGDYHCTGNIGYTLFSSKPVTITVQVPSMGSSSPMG
Kind of assay: SPR Biacore, KD(SG1)/KD(variant). As for the experimental part: as §1

Assay [8] concerns the target T2, cynomolgus monkey FcγRIIa1 …. Kind of assay: SPR Biacore, KD(SG1)/KD(variant). As for the experimental part: as §1
In assay [9] the target is T6, cynomolgus monkey FcγRIIa2 extracellular domain, His-tagged (cynomolgus monkey).
T6 construct: also called cyno FcγRIIa2; cynoFcgRIIa2; not shown: C-terminal His-tag
T6 chain: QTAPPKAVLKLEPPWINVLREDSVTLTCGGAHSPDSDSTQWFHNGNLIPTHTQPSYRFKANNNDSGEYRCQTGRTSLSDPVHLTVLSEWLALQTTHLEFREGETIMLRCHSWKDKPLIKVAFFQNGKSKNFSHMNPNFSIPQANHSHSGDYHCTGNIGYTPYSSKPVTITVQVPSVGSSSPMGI
Kind of assay: SPR Biacore, antibody captured, FcgR analyte.

B1: MS1032LO06-MY335 (antibody, human IgG1, kappa)
heavy: QVTLKESGPVLVKPTETLTLTCTVSGIDLSHDDISWVRQAPGKGLEWVGIISYAGSTYYASWAKGRLTISKDTSKNQVVLTMTNMDPVDTATYYCARGVPAYSHGGDLWGQGTLVTVSSASTKGPSVFPLAPSSKSTSGGTAALGCLVKDYFPEPVTVSWNSGALTSGVHTFPAVLQSSGLYSLSSVVTVPSSSLGTQTYICNVNHKPSNTKVDKKVEPKSCDKTHTCPPCPAPELLTGPSVFLFPPKPKDTLMISRTPEVTCVVVDVSDEDPEVKFNWYVDGVEVHNAKTKPREEQYNSTYRVVSVLTVLHRDWLNGKEYKCKVSNKALPKPIEKTISKAKGQPREPQVYTLPPSREEMTKNQVSLTCLVKGFYPSDIAVEWESNGQPENNYKTTPPVLDSDGSFFLYSKLTVKKSRWQQGNVFSCSVMHEALHNHYTQKSLSLSP
light: DIVMTQSPATLSLSPGERATLSCTSSQSVYHANWLSWFQQKPGQPPKLLIYWASTLAYGVPSRFSGSGSGTDFTLTISSLQPEDAATYYCAGGYGGGRYAFGQGTKVEIKRTVAAPSVFIFPPSDEQLKSGTASVVCLLNNFYPREAKVQWKVDNALQSGNSQESVTEQDSKDSTYSLSSTLTLSKADYEKHKVYACEVTHQGLSSPVTKSFNRGEC
notes: also called M103205H795-MY335; copies: 2 + 2
Turning to B1, in assay [1], the “KD fold (SG1 = 1)” value amounted to 0.24 fold. Moreover, binding in [2] was put at a Kd of 1.5 µM.

B2: M103205H795-MY042/M103202L889-SK1 (antibody, human IgG1, kappa, name in EU numbering)
heavy: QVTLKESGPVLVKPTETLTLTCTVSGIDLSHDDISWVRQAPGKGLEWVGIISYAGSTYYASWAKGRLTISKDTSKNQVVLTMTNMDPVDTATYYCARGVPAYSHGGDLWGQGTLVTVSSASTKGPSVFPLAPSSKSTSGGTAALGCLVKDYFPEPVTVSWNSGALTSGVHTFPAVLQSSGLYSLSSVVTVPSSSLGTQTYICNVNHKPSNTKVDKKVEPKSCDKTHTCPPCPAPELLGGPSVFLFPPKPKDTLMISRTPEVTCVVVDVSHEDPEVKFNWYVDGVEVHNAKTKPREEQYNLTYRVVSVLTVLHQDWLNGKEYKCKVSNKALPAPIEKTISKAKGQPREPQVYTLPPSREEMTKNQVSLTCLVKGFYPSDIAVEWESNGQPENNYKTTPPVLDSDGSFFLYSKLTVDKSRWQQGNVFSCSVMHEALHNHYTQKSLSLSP
light: DIVMTQSPATLSLSPGERATLSCTSSQSVYHANWLSWFQQKPGQPPKLLIYWASTLAYGVPSRFSGSGSGTDFTLTISSLQPEDAATYYCAGGYGGGRYAFGQGTKVEIKRTVAAPSVFIFPPSDEQLKSGTASVVCLLNNFYPREAKVQWKVDNALQSGNSQESVTEQDSKDSTYSLSSTLTLSKADYEKHKVYACEVTHQGLSSPVTKSFNRGEC
notes: Substitution introduced into M103205H795-SG1; EU numbering
Regarding B2, in [3], binding was characterised by a dissociation constant (Kd) of 0.51 µM.

B3: M103205H795-MY071/M103202L889-SK1 (antibody, human IgG1, kappa, name in EU numbering)
heavy: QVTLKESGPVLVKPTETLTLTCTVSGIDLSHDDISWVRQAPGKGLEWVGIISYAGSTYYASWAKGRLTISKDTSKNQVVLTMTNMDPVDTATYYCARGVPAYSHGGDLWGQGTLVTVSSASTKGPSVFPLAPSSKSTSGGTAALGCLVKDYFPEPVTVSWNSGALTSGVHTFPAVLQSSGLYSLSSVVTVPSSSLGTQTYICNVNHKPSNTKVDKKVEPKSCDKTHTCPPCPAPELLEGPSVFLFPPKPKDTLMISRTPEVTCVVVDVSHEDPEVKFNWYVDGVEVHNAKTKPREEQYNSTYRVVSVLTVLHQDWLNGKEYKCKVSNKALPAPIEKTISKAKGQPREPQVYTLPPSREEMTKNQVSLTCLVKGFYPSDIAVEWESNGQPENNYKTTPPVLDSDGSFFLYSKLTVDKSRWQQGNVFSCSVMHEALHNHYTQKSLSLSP
light: DIVMTQSPATLSLSPGERATLSCTSSQSVYHANWLSWFQQKPGQPPKLLIYWASTLAYGVPSRFSGSGSGTDFTLTISSLQPEDAATYYCAGGYGGGRYAFGQGTKVEIKRTVAAPSVFIFPPSDEQLKSGTASVVCLLNNFYPREAKVQWKVDNALQSGNSQESVTEQDSKDSTYSLSSTLTLSKADYEKHKVYACEVTHQGLSSPVTKSFNRGEC
notes: as for B2
Turning to B3, the figures for the “KD fold (SG1 = 1)” value in assay [4] and in assay [5] were 1.8 fold and 1.5 fold, respectively. This molecule also yielded a Kd in [6] of 3.1 µM.

B4: M103205H795-MY040/M103202L889-SK1 (antibody, human IgG1, kappa, name in EU numbering)
heavy: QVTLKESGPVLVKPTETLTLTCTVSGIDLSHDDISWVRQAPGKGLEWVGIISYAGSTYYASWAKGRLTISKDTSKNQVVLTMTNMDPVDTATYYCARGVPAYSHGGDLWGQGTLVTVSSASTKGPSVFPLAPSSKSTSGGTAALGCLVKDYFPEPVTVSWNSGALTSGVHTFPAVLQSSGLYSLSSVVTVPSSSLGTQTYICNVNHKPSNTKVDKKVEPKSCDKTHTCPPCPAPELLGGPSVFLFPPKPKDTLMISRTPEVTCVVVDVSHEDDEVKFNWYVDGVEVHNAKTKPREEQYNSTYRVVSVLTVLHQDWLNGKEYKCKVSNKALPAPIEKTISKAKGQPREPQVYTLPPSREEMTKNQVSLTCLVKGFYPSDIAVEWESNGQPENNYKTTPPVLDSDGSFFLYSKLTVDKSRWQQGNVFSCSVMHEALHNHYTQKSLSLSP
light: DIVMTQSPATLSLSPGERATLSCTSSQSVYHANWLSWFQQKPGQPPKLLIYWASTLAYGVPSRFSGSGSGTDFTLTISSLQPEDAATYYCAGGYGGGRYAFGQGTKVEIKRTVAAPSVFIFPPSDEQLKSGTASVVCLLNNFYPREAKVQWKVDNALQSGNSQESVTEQDSKDSTYSLSSTLTLSKADYEKHKVYACEVTHQGLSSPVTKSFNRGEC
notes: as for B2
As to B4, the figures for the “KD fold (SG1 = 1)” value in [4] and in assay [7] were 3.9 fold and 0.9 fold, respectively. This molecule gave a Kd in [3] of 5.5 µM.

B5: M103205H795-MY196/M103202L889-SK1 (antibody, human IgG1, kappa, name in EU numbering)
heavy: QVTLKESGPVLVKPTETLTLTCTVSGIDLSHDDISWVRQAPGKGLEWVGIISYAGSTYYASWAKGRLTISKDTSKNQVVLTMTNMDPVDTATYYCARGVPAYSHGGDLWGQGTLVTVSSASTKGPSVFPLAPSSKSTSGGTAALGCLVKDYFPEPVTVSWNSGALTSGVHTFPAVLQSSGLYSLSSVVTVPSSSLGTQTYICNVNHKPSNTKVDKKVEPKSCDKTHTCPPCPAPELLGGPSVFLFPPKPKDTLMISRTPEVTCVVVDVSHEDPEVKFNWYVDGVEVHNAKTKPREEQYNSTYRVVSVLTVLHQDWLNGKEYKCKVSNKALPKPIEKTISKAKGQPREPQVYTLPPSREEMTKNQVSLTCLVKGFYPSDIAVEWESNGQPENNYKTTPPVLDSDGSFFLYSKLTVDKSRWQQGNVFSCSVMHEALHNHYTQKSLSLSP
light: DIVMTQSPATLSLSPGERATLSCTSSQSVYHANWLSWFQQKPGQPPKLLIYWASTLAYGVPSRFSGSGSGTDFTLTISSLQPEDAATYYCAGGYGGGRYAFGQGTKVEIKRTVAAPSVFIFPPSDEQLKSGTASVVCLLNNFYPREAKVQWKVDNALQSGNSQESVTEQDSKDSTYSLSSTLTLSKADYEKHKVYACEVTHQGLSSPVTKSFNRGEC
notes: as for B2
Take B5: the Kd in assay [6] was found to be 3.2 µM.

B6: M103205H795-MY070/M103202L889-SK1 (antibody, human IgG1, kappa, name in EU numbering)
heavy: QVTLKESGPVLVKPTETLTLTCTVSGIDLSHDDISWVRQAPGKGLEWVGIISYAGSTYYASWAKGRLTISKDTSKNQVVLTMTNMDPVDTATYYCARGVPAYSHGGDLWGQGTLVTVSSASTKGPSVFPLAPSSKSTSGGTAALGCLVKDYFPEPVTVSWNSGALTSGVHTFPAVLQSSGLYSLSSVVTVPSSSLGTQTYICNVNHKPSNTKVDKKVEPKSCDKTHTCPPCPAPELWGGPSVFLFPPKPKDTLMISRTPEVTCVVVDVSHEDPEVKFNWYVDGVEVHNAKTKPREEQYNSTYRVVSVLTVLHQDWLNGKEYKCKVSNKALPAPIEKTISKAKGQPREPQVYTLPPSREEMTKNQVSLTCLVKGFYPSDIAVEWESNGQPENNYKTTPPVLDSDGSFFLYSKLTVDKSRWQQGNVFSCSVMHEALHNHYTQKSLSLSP
light: DIVMTQSPATLSLSPGERATLSCTSSQSVYHANWLSWFQQKPGQPPKLLIYWASTLAYGVPSRFSGSGSGTDFTLTISSLQPEDAATYYCAGGYGGGRYAFGQGTKVEIKRTVAAPSVFIFPPSDEQLKSGTASVVCLLNNFYPREAKVQWKVDNALQSGNSQESVTEQDSKDSTYSLSSTLTLSKADYEKHKVYACEVTHQGLSSPVTKSFNRGEC
notes: as for B2
Take B6: the “KD fold (SG1 = 1)” value in assay [8] is 1 fold. The molecule also showed a Kd in assay [9] of 2.8 µM.

B7: MS1032LO06-PK2 (antibody, human IgG1, kappa)
heavy: QVTLKESGPVLVKPTETLTLTCTVSGIDLSHDDISWVRQAPGKGLEWVGIISYAGSTYYASWAKGRLTISKDTSKNQVVLTMTNMDPVDTATYYCARGVPAYSHGGDLWGQGTLVTVSSASTKGPSVFPLAPSSKSTSGGTAALGCLVKDYFPEPVTVSWNSGALTSGVHTFPAVLQSSGLYSLSSVVTVPSSSLGTQTYICNVNHKPSNTKVDKKVEPKSCDKTHTCPPCPAPELLNGPSVFLFPPKPKDTLMISRTPEVTCVVVDVSEEDPEVKFNWYVDGVEVHNAKTKPREEQYNSTYRVVSVLTVLHQDWLNGKEYKCKVSNKALPKPIEKTISKAKGQPREPQVYTLPPSREEMTKNQVSLTCLVKGFYPSDIAVEWESNGQPENNYKTTPMVLDRDGSFFLYSKLTVKKSRWQQGNVFSCSVMHEALHNHYTQKSLSLSP
light: DIVMTQSPATLSLSPGERATLSCTSSQSVYHANWLSWFQQKPGQPPKLLIYWASTLAYGVPSRFSGSGSGTDFTLTISSLQPEDAATYYCAGGYGGGRYAFGQGTKVEIKRTVAAPSVFIFPPSDEQLKSGTASVVCLLNNFYPREAKVQWKVDNALQSGNSQESVTEQDSKDSTYSLSSTLTLSKADYEKHKVYACEVTHQGLSSPVTKSFNRGEC
notes: also called M103205H795-PK2; copies: 2 + 2
For B7, the “KD fold (SG1 = 1)” value in assay [1] turned out to be 0.09 fold. This molecule displayed a Kd in assay [2] of 3.9 µM.

B8: MS1032LO06-MY344 (antibody, human IgG1, kappa)
heavy: QVTLKESGPVLVKPTETLTLTCTVSGIDLSHDDISWVRQAPGKGLEWVGIISYAGSTYYASWAKGRLTISKDTSKNQVVLTMTNMDPVDTATYYCARGVPAYSHGGDLWGQGTLVTVSSASTKGPSVFPLAPSSKSTSGGTAALGCLVKDYFPEPVTVSWNSGALTSGVHTFPAVLQSSGLYSLSSVVTVPSSSLGTQTYICNVNHKPSNTKVDKKVEPKSCDKTHTCPPCPAPELLNGPSVFLFPPKPKDTLMISRTPEVTCVVVDVSDEDPEVKFNWYVDGVEVHNAKTKPREELYNSTYRVVSVLTVLHRDWLNGKEYKCKVSNKALPKPIEKTISKAKGQPREPQVYTLPPSREEMTKNQVSLTCLVKGFYPSDIAVEWESNGQPENNYKTTPPVLDSDGSFFLYSKLTVKKSRWQQGNVFSCSVMHEALHNHYTQKSLSLSP
light: DIVMTQSPATLSLSPGERATLSCTSSQSVYHANWLSWFQQKPGQPPKLLIYWASTLAYGVPSRFSGSGSGTDFTLTISSLQPEDAATYYCAGGYGGGRYAFGQGTKVEIKRTVAAPSVFIFPPSDEQLKSGTASVVCLLNNFYPREAKVQWKVDNALQSGNSQESVTEQDSKDSTYSLSSTLTLSKADYEKHKVYACEVTHQGLSSPVTKSFNRGEC
notes: also called M103205H795-MY344; copies: 2 + 2
On to B8, for which the “KD fold (SG1 = 1)” value in assay [1] was determined as 0.07 fold. This molecule had an equilibrium dissociation constant (Kd) in assay [2] of 4.9 µM.

A word on the Kd: it is the equilibrium constant for the complex coming apart.

For the origin of these results see patent US20250076311A1 (Chugai, published 2025).
